How the values were obtained:
Assay in all cases: cell-based or functional assay
[1] = target: human FSHR on FSHR CRE-Bla cells (human) (UniProt P23945)
[2] = target: C-terminal HA tagged human Leptin receptor on LepR SIE-Bla cells (human) (UniProt P48357)
[3] = target: human LepR on Baf3 LepR cells (human) (UniProt P48357)
human LepR on Baf3 LepR cells (human), sequence (P48357 22-1165): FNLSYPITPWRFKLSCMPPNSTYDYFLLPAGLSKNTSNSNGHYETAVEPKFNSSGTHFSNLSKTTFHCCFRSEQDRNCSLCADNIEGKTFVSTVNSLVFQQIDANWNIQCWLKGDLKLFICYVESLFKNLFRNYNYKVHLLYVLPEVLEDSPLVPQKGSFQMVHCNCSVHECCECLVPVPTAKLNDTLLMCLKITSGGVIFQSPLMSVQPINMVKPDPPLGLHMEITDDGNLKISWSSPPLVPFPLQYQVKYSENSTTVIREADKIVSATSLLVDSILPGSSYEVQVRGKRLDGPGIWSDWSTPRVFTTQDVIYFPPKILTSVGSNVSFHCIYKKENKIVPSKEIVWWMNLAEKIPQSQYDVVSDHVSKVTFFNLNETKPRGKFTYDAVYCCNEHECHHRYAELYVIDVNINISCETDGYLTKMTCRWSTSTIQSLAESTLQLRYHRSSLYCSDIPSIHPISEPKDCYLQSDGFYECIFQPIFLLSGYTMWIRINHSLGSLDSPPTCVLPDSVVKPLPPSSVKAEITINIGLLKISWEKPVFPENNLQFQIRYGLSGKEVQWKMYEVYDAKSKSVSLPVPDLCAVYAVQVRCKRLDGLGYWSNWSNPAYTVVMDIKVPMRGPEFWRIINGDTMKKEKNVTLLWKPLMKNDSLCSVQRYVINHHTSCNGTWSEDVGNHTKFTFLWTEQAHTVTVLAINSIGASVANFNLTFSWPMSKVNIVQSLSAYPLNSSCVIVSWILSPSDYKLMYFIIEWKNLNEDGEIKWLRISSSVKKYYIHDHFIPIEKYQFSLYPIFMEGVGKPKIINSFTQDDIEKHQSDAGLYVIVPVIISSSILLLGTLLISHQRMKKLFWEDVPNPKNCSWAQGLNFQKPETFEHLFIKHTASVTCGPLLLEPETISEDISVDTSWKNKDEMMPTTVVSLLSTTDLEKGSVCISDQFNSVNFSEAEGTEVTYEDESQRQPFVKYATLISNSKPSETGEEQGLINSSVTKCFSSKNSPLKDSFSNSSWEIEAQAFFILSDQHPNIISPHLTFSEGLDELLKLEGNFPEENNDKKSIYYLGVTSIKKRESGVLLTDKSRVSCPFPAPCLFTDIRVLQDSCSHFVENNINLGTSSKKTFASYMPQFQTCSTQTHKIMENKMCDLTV

C-terminal HA tagged human Leptin receptor on LepR SIE-Bla cells (human), sequence (P48357 22-1165): as above
human FSHR on FSHR CRE-Bla cells (human), sequence (P23945 18-695): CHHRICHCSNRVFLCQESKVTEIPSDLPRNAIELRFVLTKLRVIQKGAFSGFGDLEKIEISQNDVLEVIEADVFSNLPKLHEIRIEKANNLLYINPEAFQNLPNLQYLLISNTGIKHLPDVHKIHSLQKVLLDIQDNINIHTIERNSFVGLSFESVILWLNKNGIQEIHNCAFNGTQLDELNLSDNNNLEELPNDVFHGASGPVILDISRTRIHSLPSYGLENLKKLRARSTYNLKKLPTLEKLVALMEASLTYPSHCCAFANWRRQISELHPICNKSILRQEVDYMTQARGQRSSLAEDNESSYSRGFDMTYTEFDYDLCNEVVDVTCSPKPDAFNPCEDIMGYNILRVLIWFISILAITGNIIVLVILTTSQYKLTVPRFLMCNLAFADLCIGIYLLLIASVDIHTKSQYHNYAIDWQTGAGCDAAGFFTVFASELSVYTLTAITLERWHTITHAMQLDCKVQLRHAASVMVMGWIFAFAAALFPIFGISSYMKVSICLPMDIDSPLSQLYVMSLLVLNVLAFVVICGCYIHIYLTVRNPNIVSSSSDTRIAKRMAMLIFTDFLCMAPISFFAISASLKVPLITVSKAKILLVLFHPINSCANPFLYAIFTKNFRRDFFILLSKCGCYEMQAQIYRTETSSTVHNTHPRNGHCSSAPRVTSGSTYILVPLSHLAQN

## single chain FSH (from UniProt P01225 19-129; P01215 25-116) (ligand)
[1]
  EC50, FRET assay using the beta-lactamase-based FSHR CRE-Bla cell line: 5.7 pM

## recombinant human Leptin protein (from UniProt P41159 22-167) (ligand)
[2]
  EC50, FRET assay using the beta-lactamase-based LepR SIE-Bla cell line: 313 pM
  response ratio in a fluorescence resonance energy transfer (FRET) assay, LepR SIE-Bla cells: 8.5
[3]
  EC50, proliferation assay using the Baf3 LepR cell line: 310 pM

— patent publication US20180298051A1
